For the test, the target named is T1, CCR5 chemokine receptor on CHO-CCR5 cells (UniProt P51681 1-352).
T1 construct: also called the receptor; source: Chinese hamster ovary cell line (CHO), stably expressing CCR5
In words: not stated; receptor binding of CCL5 P2G against wild-type CCL5 (Fig. S14); methods in the SI, not shown.

T1 sequence (P51681 whole entry): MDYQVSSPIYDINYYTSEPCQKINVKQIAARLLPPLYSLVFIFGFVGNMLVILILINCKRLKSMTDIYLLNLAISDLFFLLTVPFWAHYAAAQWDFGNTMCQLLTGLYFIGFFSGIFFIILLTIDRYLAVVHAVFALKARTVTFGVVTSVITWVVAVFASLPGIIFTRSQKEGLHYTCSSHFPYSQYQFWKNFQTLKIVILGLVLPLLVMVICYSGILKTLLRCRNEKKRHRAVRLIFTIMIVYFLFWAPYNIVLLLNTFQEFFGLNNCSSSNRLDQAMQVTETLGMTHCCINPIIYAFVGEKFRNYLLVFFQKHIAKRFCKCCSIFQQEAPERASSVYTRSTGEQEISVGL

B1: CCL5 P2G 1 (ligand, human, UniProt P13501 24-91, looked up)
chain: SGYSSDTTPCCFAYIARPLPRAHIKEYFYTSGKCSNPAVVFVTRKNRQVCANPEKKWVREYINSLEMS
notes: Human C–C chemokine ligand 5 (CCL5, RANTES), with its native N-terminal serine after traceless SUMO cleavage, point mutant P2G; also called CCL5 point mutant (P2G); CCL5 P2G variant; source: E. coli SHuffle LysY, purified (His-SUMO tag capture, SUMO protease cleavage); not shown: His, N-terminal, cleaved; SUMO, N-terminal, cleaved
Turning to B1, the “fold reduction of binding against wild-type CCL5” value is 3 fold.

These data come from article PMC12455665, “Convergent construction of N-terminally modified CCL5 chemokines for photoaffinity receptor pull-down using cross-aldol bioconjugations” (RSC Chemical Biology, 2025).
